The results in this text go back to paper PMC2883074 (Molecular Microbiology, 2010).

Series [1] deals with the molecule itself. Briefly: SEC.
The series “crystal structure” concerns the molecule itself. Nature of the series: crystal structure.
Series [2] deals with the molecule itself. Briefly: SEC. The source holds these as a separate data set. (In gel filtration, larger molecules generally elute earlier.)

Where two headings read alike, the source gives them in different places.

B1: full-length Helicobacter pylori MinE (natural protein, UniProt O25099 1-77, looked up)
chain: MSLFDFFKNKGSAATATDRLKLILAKERTLNLPYMEEMRKEIIAVIQKYTKSSDIHFKTLDSNQSVETIEVEIILPR
For orientation: stoichiometry N means the number of molecules, sites or subunits per partner or assembly. B1: in the series “SEC [1]”, the “stoichiometry N” value was determined as 2.

B2: Selenomethionine (Se-Met)-labelled HpMinE (natural protein, Helicobacter pylori, UniProt O25099 1-77, looked up)
chain: B1 chain
modifications: selenomethionine (Se-Met-labelled)
With B2, in “crystal structure”, the binding result is reported as “binds”.

B3: EcMinEΔN (residues 32-88 of EcMinE) (domain or fragment, E. coli, UniProt P0A734 32-88, looked up)
chain: SDAEPHYLPQLRKDILEVICKYVQIDPEMVTVQLEQKDGDISILELNVTLPEAEELK
On to B3, for which the “stoichiometry N” value in “SEC [2]” was found to be 4.

B4: HpMinEΔN (residues 29-77 of HpMinE) (domain or fragment, Helicobacter pylori, UniProt O25099 29-77, looked up)
chain: TLNLPYMEEMRKEIIAVIQKYTKSSDIHFKTLDSNQSVETIEVEIILPR
For the protein B4, the “stoichiometry N” value in the series “SEC [2]” worked out at 3.
